The target of series [1] is T1, Lin28A (UniProt Q8K3Y3 Q8K3Y3:1-209).
T1 sequence: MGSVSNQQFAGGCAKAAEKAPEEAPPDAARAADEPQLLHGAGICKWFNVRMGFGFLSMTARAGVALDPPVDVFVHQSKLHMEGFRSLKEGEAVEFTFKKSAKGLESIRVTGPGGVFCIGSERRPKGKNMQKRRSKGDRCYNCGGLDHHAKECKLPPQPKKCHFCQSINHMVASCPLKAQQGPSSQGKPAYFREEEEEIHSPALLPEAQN
The series can be described thus: EMSA. As to conditions: tags: 6xHis, E. coli; label: 5'-32P; hairpin with 3' oligoU tail. The method, then:
(§1) EMSA experiments were performed as described previously. Briefly, 1 nM of the indicated radiolabeled synthetic RNA was incubated in the binding buffer (50 mM Tris pH 7.6, 100 mM NaCl, 10 mM […], 1 unit/µl RNaseOUT) with varying concentrations of catalytically inert recombinant 6x-His Dis3L2 or recombinant 6x-His Lin28 in the absence of competitor RNA. Nucleoprotein complexes were resolved by 4-20% non-denaturing TBE gel electrophoresis (Biorad, #345-0059) and visualized by autoradiography.
(In general: A gel shift assay detects complexes by their altered migration in electrophoresis.)

Series [2] concerns the target T2, Dis3l2 (recombinant 6xHis) (Mus musculus, UniProt Q8CI75 Q8CI75:1-870).
T2 sequence: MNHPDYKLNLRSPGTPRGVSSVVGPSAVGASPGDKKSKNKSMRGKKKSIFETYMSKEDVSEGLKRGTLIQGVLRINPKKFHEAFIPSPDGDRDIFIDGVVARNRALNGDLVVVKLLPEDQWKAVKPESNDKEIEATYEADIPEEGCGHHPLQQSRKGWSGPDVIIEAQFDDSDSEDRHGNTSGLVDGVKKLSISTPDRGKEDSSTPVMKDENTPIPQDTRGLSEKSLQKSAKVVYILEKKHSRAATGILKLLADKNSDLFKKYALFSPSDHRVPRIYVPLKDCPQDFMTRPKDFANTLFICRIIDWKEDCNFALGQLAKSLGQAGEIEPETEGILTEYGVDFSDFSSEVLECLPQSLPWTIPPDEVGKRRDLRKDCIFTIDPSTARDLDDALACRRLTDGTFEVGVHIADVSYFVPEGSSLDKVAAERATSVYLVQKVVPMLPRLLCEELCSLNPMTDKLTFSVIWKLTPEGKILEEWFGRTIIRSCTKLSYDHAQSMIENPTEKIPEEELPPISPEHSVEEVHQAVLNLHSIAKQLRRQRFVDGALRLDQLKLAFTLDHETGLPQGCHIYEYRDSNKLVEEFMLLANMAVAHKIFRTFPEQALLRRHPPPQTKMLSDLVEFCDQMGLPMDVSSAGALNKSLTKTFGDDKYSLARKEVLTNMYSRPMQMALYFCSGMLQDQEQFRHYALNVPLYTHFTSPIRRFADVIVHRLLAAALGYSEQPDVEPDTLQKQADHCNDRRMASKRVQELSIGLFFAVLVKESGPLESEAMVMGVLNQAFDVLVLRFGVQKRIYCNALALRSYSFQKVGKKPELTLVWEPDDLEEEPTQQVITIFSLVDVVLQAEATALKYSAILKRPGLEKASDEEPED
The series can be described thus: cleavage_in_vitro; relative RNA stability difference versus non-uridylated; 0.05 mM MgCl2, 50 mM KCl, pH 7.5, 37 C. As to conditions: tags: 6xHis, pETDuet-1, E. coli; label: 5'-32P; hairpin with 3' oligoU tail. The method, then: RNA degradation assays were performed in a total of 20 µl reaction using 6.25 nM 5' end-labeled pre-miR-21, pre-let-7a-1, or pre-let-7a-1+14U RNA (see Table 2) together with Dis3l2 and/or Lin28A. The reactions were set up in the RNA degradation buffer (20 mM HEPES-KOH pH 7.5, 50 mM KCl, 0.05 mM MgCl2, 1 mM DTT) and incubated at 37° C. for 90 minutes. For time-course assays; recombinant 6x-His Dis3l2 was incubated with radiolabeled pre-let-7a-1 or pre-let-7a-1+14U. Bands from three independent experiments were quantified using ImageJ (NIH) and plotted using Prism (Graphpad). Values were fitted to one-phase decay curves with error bars representing +/- s.d. (n=3). For Uridylation-stimulated degradation assays; in vitro uridylation assays were performed as described previously[20,26,27] except with the addition of 10 µM cold competitor uridine triphosphate and immunopurified Dis3l2 where indicated.

Series [3] deals with T3, Dis3l2 D389N (Mus musculus, UniProt Q8CI75 Q8CI75:1-870, D389N).
T3 sequence: T2 sequence with D389N
The series can be described thus: EMSA; 1 nM RNA, 50 mM Tris pH 7.6, 100 mM NaCl. As to conditions: tags: 6xHis, E. coli; label: 5'-32P; hairpin with 3' oligoU tail. The method, then:
as §1

Series [4] concerns the target T4, Dis3l2 D389N (Flag) (Mus musculus, UniProt Q8CI75 Q8CI75:1-870, D389N).
T4 sequence: T2 sequence with D389N
The series can be described thus: EMSA; retains binding though catalytically inactive. As to conditions: tags: Flag, immunopurified from V6.5 ESC; label: 5'-32P; hairpin with 3' oligoU tail.

Residue numbers refer to the chain shown, from its start.

B1: mmu-pre-let-7a-1+14U (ssRNA)
RNA: UGAGGUAGUAGGUUGUAUAGUUUUAGGGUCACACCCACCACUGGGAGAUAACUAUACAAUCUACUGUCUUUCCUUUUUUUUUUUUUU
On to B1, for which the binding result in series [1], in series [3] and in series [4] was “binds” each time. In addition, the activity in series [2] is more than 10 fold.

For the origin of these results see patent publication US9994813, “Role for the perlman syndrome exonuclease Dis3l2 in the Lin28-let-7 pathway” (Children's Medical Center Corporation).
